Assay results published in patent US20250215039A1, “NUCLEOSIDES FOR TREATING CANCER” (PRIMEFOUR THERAPEUTICS, INC., priority 2022, published 2025).

Columns and labels:
Experiment in all cases: not read
Conditions in all cases: other: substrate of human CDA, 37° C., Michaelis Menten fit, pH 7.5
not read [1] = substrate: Nc1ccn([C@@H]2O[C@H](CO)[C@@H](O)C2(F)F)c(=O)n1
not read [2] = substrate: C[C@]1(CO)O[C@@H](n2ccc(N)nc2=O)[C@@H](O)[C@@H]1O
not read [3] = substrate: C[C@]1(CO)O[C@@H](n2cc(F)c(N)nc2=O)[C@@H](O)[C@@H]1O
not read [4] = substrate: C[C@]1(CO)O[C@@H](n2cc(F)c(N)nc2=O)C[C@@H]1O

B1: human cytidine deaminase (CDA) (Homo sapiens) (protein)
chain: MAQKRPACTLKPECVQQLLVCSQEAKKSAYCPYSHFPVGAALLTQEGRIFKGCNIENACYPLGICAERTAIQKAVSEGYKDFRAIAIASDMQDDFISPCGACRQVMREFGTNWPVYMTKPDGTYIVMTVQELLPSSFGPEDLQKTQ
Km (not read [1]): 520.8 µM | kcat (not read [1]): 26.8 s⁻¹ | kcat/Km (not read [1]): 0.53 (M^−1s^−1) × 10^5 | Km (not read [2]): 196 µM | kcat (not read [2]): 2.8 s⁻¹ | kcat/Km (not read [2]): 16000 M⁻¹ s⁻¹ | Km (not read [3]): 1057.8 µM | kcat (not read [3]): 6.1 s⁻¹ | kcat/Km (not read [3]): 5000 M⁻¹ s⁻¹ | Km (not read [4]): 1003 µM | kcat (not read [4]): 13.3 s⁻¹ | kcat/Km (not read [4]): 23000 M⁻¹ s⁻¹
